# Data taken from patent US20080300206.
# Molecular target: recombinant wild-type human alpha-synuclein
Protein,"S129 phosphorylation in vitro, normalised by activity units","S129 phosphorylation, immunoblot (11A5), kinase:AS 1:200 molar","S129 phosphorylation, immunoblot (11A5), rank of signal","in vitro kinase reaction, phosphorylation of alpha-synuclein at serine 129","phospho ser-129 level in vitro, normalised for molarity"
G protein-coupled receptor kinase 6 (GRK6) (protein) MELENIVANTVLLKAREGGGGNRKGKSKKWRQMLQFPHISQCEELRLSLERDYHSLCERQPIGRLLFREFCATRPELSRCVAFLDGVAEYEVTPDDKRKACGRQLTQNFLSHTGPDLIPEVPRQLVTNCTQRLEQGPCKDLFQELTRLTHEYLSVAPFADYLDSIYFNRFLQWKWLERQPVTKNTFRQYRVLGKGGFGEVCACQVRATGKMYACKKLEKKRIKKRKGEAMALNEKQILEKVNSRFVVSLAYAYETKDALCLVLTLMNGGDLKFHIYHMGQAGFPEARAVFYAAEICCGLEDLHRERIVYRDLKPENILLDDHGHIRISDLGLAVHVPEGQTIKGRVGTVGYMAPEVVKNERYTFSPDWWALGCLLYEMIAGQSPFQQRKKKIKREEVERLVKEVPEEYSERFSPQARSLCSQLLCKDPAERLGCRGGSAREVKEHPLFKKLNFKRLGAGMLEPPFKPDPQAIYCKDVLDIEQFSTVKGVELEPTDQDFYQKFATGSVPIPWQNEMVETECFQELNVFGLDGSVPPDLDWKGQPPAPPKKGLLQRLFSRQDCCGNCSDSEEELPTRL,The most prominent result came from GRK6,"Prominent signals came from GRK6, CKI, CKII and PLK2",CKI>GRK6>PLK2>GRK4>GRK5>GRK2,capable of phosphorylating alpha-synuclein specifically at serine 129 and did not phosphorylate serine 87 in vitro,"roughly equivalent levels of phospho ser-129 between CKI, GRK6 and PLK2"
GRK4 (protein) MELENIVANSLLLKARQGGYGKKSGRSKKWKEILTLPPVSQCSELRHSIEKDYSSLCDKQPIGRRLFRQFCDTKPTLKRHIEFLDAVAEYEVADDEDRSDCGLSILDRFFNDKLAAPLPEIPPDVVTECRLGLKEENPSKKAFEECTRVAHNYLRGEPFEEYQESSYFSQFLQWKWLERQPVTKNTFRHYRVLGKGGFGEVCACQVRATGKMYACKKLQKKRIKKRKGEAMALNEKRILEKVQSRFVVSLAYAYETKDALCLVLTIMNGGDLKFHIYNLGNPGFDEQRAVFYAAELCCGLEDLQRERIVYRDLKPENILLDDRGHIRISDLGLATEIPEGQRVRGRVGTVGYMAPEVVNNEKYTFSPDWWGLGCLIYEMIQGHSPFKKYKEKVKWEEVDQRIKNDTEEYSEKFSEDAKSICRMLLTKNPSKRLGCRGEGAAGVKQHPVFKDINFRRLEANMLEPPFCPDPHAVYCKDVLDIEQFSVVKGIYLDTADEDFYARFATGCVSIPWQNEMIESGCFKDINKSESEEALPLDLDKNIHTPVSRPNRGFFYRLFRRGGCLTMVPSEKEVEPKQC,,,CKI>GRK6>PLK2>GRK4>GRK5>GRK2,,
GRK2 (protein) MADLEAVLADVSYLMAMEKSKATPAARASKKILLPEPSIRSVMQKYLEDRGEVTFEKIFSQKLGYLLFRDFCLNHLEEARPLVEFYEEIKKYEKLETEEERVARSREIFDSYIMKELLACSHPFSKSATEHVQGHLGKKQVPPDLFQPYIEEICQNLRGDVFQKFIESDKFTRFCQWKNVELNIHLTMNDFSVHRIIGRGGFGEVYGCRKADTGKMYAMKCLDKKRIKMKQGETLALNERIMLSLVSTGDCPFIVCMSYAFHTPDKLSFILDLMNGGDLHYHLSQHGVFSEADMRFYAAEIILGLEHMHNRFVVYRDLKPANILLDEHGHVRISDLGLACDFSKKKPHASVGTHGYMAPEVLQKGVAYDSSADWFSLGCMLFKLLRGHSPFRQHKTKDKHEIDRMTLTMAVELPDSFSPELRSLLEGLLQRDVNRRLGCLGRGAQEVKESPFFRSLDWQMVFLQKYPPPLIPPRGEVNAADAFDIGSFDEEDTKGIKLLDSDQELYRNFPLTISERWQQEVAETVFDTINAETDRLEARKKAKNKQLGHEEDYALGKDCIMHGYMSKMGNPFLTQWQRRYFYLFPNRLEWRGEGEAPQSLLTMEEIQSVEETQIKERKCLLLKIRGGKQFILQCDSDPELVQWKKELRDAYREAQQLVQRVPKMKNKPRSPVVELSKVPLVQRGSANGL,,,CKI>GRK6>PLK2>GRK4>GRK5>GRK2,capable of phosphorylating alpha-synuclein specifically at serine 129 and did not phosphorylate serine 87 in vitro,
